Legend:
[1] = tested on: MS2 coat protein; test: apparent KD of MS2 coat protein, switch ON state; designed switch direction (-1 OFF switch, 1 ON switch): 1; higher = weaker reporter binding; settings: FMN input: 0 or 200 uM; Eterna round: R93 (includes R88 designs)
Procedure, shortened: (§1)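 The buffer was 100 mM Tris-HCl pH 7.5 with 80 mM KCl and 4 mM MgCl2, used without or with constant ligand. In it, RNA switches transcribed on-chip from Illumina sequencing clusters were titrated with SNAP-549-labelled MS2 coat protein in twofold steps from 0.7 or 1.5 nM to 3 µM. Apparent KD for each design is the median of its normalised cluster binding-curve fits.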

[2] = tested on: MS2 coat protein; test: apparent KD of MS2 coat protein, switch OFF state (with FMN for OFF switches, without FMN for ON switches); designed switch direction (-1 OFF switch, 1 ON switch): 1; higher = weaker reporter binding; settings: FMN input: 0 or 200 uM; Eterna round: R93 (includes R88 designs)
Procedure, shortened: as §1

For “AAAAGGGCGACACAGGAUAUGUUGACCCUAACAUGAGGAUCACCCAUGUGCAUUUAGGGUCGUGCGCAGAAGGGUGCAGCUCGGA [Enatin]”, the “apparent KD of MS2 coat protein” value [1] was 21.1 nM and the “apparent KD of MS2 coat protein” value [2] was 41.8 nM.

In the case of “GGAGCCGGCACCGAGGAUAUUCAUAUUAAAACAUGAGGAUCACCCAUGUAGGCCAGAAGGCCUUGGGAGAAGGCGGAUCGGCUCG [Xeonanis]”, the “apparent KD of MS2 coat protein” value [1] is reported as 29.9 nM and the “apparent KD of MS2 coat protein” value [2] is reported as 481 nM.

For “GAAAAACAUGAGGAUCACCCAUGUAGAAAUAUGGGAGGAUAUACAAAGACGAAAGUCAAAGUAGAAGGCCUAUAAG [Starry Same State 1.5 (mat747 round 1 mod)]”, the “apparent KD of MS2 coat protein” value [1] was 17.7 nM and the “apparent KD of MS2 coat protein” value [2] was 33.3 nM.

“GAAAAACAUGAGGAUCACCCAUGUAAAAAUAUGGGAGGAUAUACAAAGACGAAAGUCAAAGUAGAAGGCCUAAAAG [77%, Mat - Mod of Eli, 3]” was tested, and the “apparent KD of MS2 coat protein” value [1] was 24.4 nM and the “apparent KD of MS2 coat protein” value [2] was 59.7 nM.

In the case of “GCCUAACAUGAGGAUCACCCAUGUAGUGGGUUGUUAGGAUAUGGACCGCAAAACACGGUACCAGAAGGAAUAGAAA [Tiquleraat]”, the “apparent KD of MS2 coat protein” value [1] is reported as 448 nM and the “apparent KD of MS2 coat protein” value [2] is reported as 720 nM.

For “GGAGCCGGUACUGAGGAUAUUCAUAUUAAAACAUGAGGAUCACCCAUGUAGGCCAGAAGGCCUUGGGAGAAGGCAGAUCGGCUCC [Biceusra]”, the “apparent KD of MS2 coat protein” value [1] was 20.4 nM and the “apparent KD of MS2 coat protein” value [2] was 266 nM.

In the case of “AGAAAUAAAAGAGAGGAUAUCUCAAAGAAAACAUGAGGAUCACCCAUGUAAAAGAAAAUAAAAUGGGAGAAGGCUCAUAAUAAAG [JL Skelter Mod 5 In the Red]”, the “apparent KD of MS2 coat protein” value [1] is reported as 54.3 nM and the “apparent KD of MS2 coat protein” value [2] is reported as 133 nM.

In the case of “AAUAAACAUGAGGAUCACCCAUGUUUUAAUAGUUGAGGAUAUAAGGGUGAAAAUAGCAUAUUAGAAGGCGAGUGUA [SameState1 Malc#14]”, the “apparent KD of MS2 coat protein” value [1] is reported as 32.7 nM and the “apparent KD of MS2 coat protein” value [2] is reported as 31.7 nM.

With “AAGAAAAAAAGGCAGGAUAUCCAAAAAAAAACAUGAGGAUCACCCAUGUAAAAAUAAAAAAAAUGGGAGAAGGGCCAAAAAAGAA [Mat - Same State 2 - Mod - 154]” the “apparent KD of MS2 coat protein” value [1] was 13.8 nM and the “apparent KD of MS2 coat protein” value [2] was 22.1 nM.

For “AAAAGACAUGAGGAUCACCCAUGUCAAAAGACAUGAGGAUAUGUACAGACUUCGGUCUGUACAGAAGGCAUGUAAA [SS1 - 1069]”, the “apparent KD of MS2 coat protein” value [1] was 16.3 nM and the “apparent KD of MS2 coat protein” value [2] was 21.6 nM.

For “GACAGACAUGAGGAUCACCCAUGUACAAACGUACAAGGAUAUGUGUGGAAACCGUACUAUACAGAAGGUGUAUGUC [SS1 - 91]”, the “apparent KD of MS2 coat protein” value [1] was 42 nM and the “apparent KD of MS2 coat protein” value [2] was 80.5 nM.

With “AUGAAGGAGAGAGAGGAUAUCCAAAGGGAAACAUGAGGAUCACCCAUGUAGAAGGUAGGAAAUUGGGAGAAGGCUCAAGAGAGAG [salish99-ss2-111]” the “apparent KD of MS2 coat protein” value [1] was 25.4 nM and the “apparent KD of MS2 coat protein” value [2] was 26.9 nM.

With “AGGAAACAUGAGGAUCACCCAUGUAAAAAUAUGGGAGGAUAUACGAAGAAAAAAAAAAAAGUAGAAGGCCUAAAAG [Garnet 11]” the “apparent KD of MS2 coat protein” value [1] was 90.7 nM and the “apparent KD of MS2 coat protein” value [2] was 345 nM.

“UCCACCAUGGUACAGGAUAUGUCAGACCCGACAUGAGGAUCACCCAUGUGCGGUUCUUUUCCAACGCAGAAGGGUGCAUAGGUGG [Xevetia]” was tested, and the “apparent KD of MS2 coat protein” value [1] was 17.1 nM and the “apparent KD of MS2 coat protein” value [2] was 43.9 nM.

For “AAAGAAGAAAGUCAGGAUAUGGAUGGGUAAACAUGAGGAUCACCCAUGUAUAAGAAAGAAAGAAACCAGAAGGGACAAAAGAAAA [Artaxerxes III]”, the “apparent KD of MS2 coat protein” value [1] was 34.6 nM and the “apparent KD of MS2 coat protein” value [2] was 135 nM.

“AAAGACACAGUGCAGGAUAUAGUAAUAGUCACAUGAGGAUCACCCAUGUUCUUUUAUAAGAACGAUUAGAAGGGCGGUGAAAAAA [SameState2 Malc#11]” was tested, and the “apparent KD of MS2 coat protein” value [1] was 161 nM and the “apparent KD of MS2 coat protein” value [2] was 383 nM.

“UAACAACAUGAGGAUCACCCAUGUCAAACAAAUCGAGGAUAUGGGCAGGAUUCUUCCUAUCUAGAAGGCGAAAACA [Ricexebi]” was tested, and the “apparent KD of MS2 coat protein” value [1] was 145 nM and the “apparent KD of MS2 coat protein” value [2] was 83.2 nM.

For “AAAAAAUAAAAAAAGGAUAUAAAAGGUAGUACAUGAGGAUCACCCAUGUUCUACCAAAAAAUAAAAAAGAAGGAAAAAUAAAAAA [SS2: MS2 15]”, the “apparent KD of MS2 coat protein” value [1] was 17.6 nM and the “apparent KD of MS2 coat protein” value [2] was 16.4 nM.

For “AGAAAUAAAACACAGGAUAUCCAAAAUAAAACAUGAGGAUCACCCAUGUAAAAUAAAAUAAAAUGGGAGAAGGGUGAAAAUAAAG [Mat - Same State 2 - JL mod - D10]”, the “apparent KD of MS2 coat protein” value [1] was 25.3 nM and the “apparent KD of MS2 coat protein” value [2] was 39.9 nM.
